B1: KCNK9 (parent)
chain: DVPDLQSVCSCTCYRSQDYGGRSV

Variants of: B1
Assay: protein stability index of a GFP-peptide fusion (GPS, HEK-293T) (PSI 1-6); higher = more stable
Conditions: c terminus: a fixed tail appended
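Also: lentivirally expressed fusions sorted by FACS into six bins by GFP to DsRed ratio, PSI derived from sequencing read proportions per bin multiplied by bin number.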

In order of falling protein stability index:
1. DVPDLQSVCSETCYRSQDYGGRSV  4.65
2. DVPDLQSVCSDTCYRSQDYGGRSV  4.15
3. DVPDLYSVCSCTCYRSQDYGGRSV  4.08
4. DVPDLQSVCSPTCYRSQDYGGRSV  3.8
5. DVPDLQSVCSCTCMRSQDYGGRSV  3.61
6. DVPDLQSVCSYTCYRSQDYGGRSV  3.6
7. DVPDLQSVCSCTCYDSQDYGGRSV  3.58
8. DVPDLQSVCSCTCYRPQDYGGRSV  3.56
9. DVPDLQSGCSCTCYRSQDYGGRSV  3.36
10. DVPDLQSVCSSTCYRSQDYGGRSV  3.3
11. DVPDLQSVDSCTCYRSQDYGGRSV  3.26
12. DVPDLQSVCSCTCWRSQDYGGRSV  3.24
13. DVPDLQSVCSNTCYRSQDYGGRSV  3.21
14. DVPDLQSVCSCTGYRSQDYGGRSV  3.14
15. DVPDLQSVCSCTCYRSLDYGGRSV  3.13
16. DVPDLQSVCSCHCYRSQDYGGRSV  3.13
17. DVPDLQSVSSCTCYRSQDYGGRSV  3.05
18. DVPDLQSVCSKTCYRSQDYGGRSV  3.05
19. DVPDLQSVCSCTTYRSQDYGGRSV  3
20. DVPDLQSVCSCTCYRLQDYGGRSV  2.87
21. DVPDLQSVCSCTCYRIQDYGGRSV  2.85
22. DVPDLQSVCSCTEYRSQDYGGRSV  2.85
23. DVPDLQSVCSCTIYRSQDYGGRSV  2.85
24. DVPDLQSVCSCTPYRSQDYGGRSV  2.81
25. DVPDLQSVCSTTCYRSQDYGGRSV  2.81
26. DVPDLQSDCSCTCYRSQDYGGRSV  2.8
27. DVPDLQSACSCTCYRSQDYGGRSV  2.8
28. DVPDLQSVCSCTSYRSQDYGGRSV  2.79
29. DVPDLQSVCDCTCYRSQDYGGRSV  2.79
30. DVPDLQSVCSCDCYRSQDYGGRSV  2.79
31. DVPDLQSVCSCTCYRFQDYGGRSV  2.78
32. DVPDLQSVCSCTCYRSMDYGGRSV  2.76
33. DVPDLQSVCSCFCYRSQDYGGRSV  2.76
34. DVPDLQSVCSCWCYRSQDYGGRSV  2.72
35. DVPDLQSVCSCTCPRSQDYGGRSV  2.71
36. DVPDLQSVASCTCYRSQDYGGRSV  2.7
37. DVPDLQSVCSCTQYRSQDYGGRSV  2.69
38. DVPDLQSVCSCTCYHSQDYGGRSV  2.68
39. DVPDLQSVNSCTCYRSQDYGGRSV  2.66
40. DVPDLQSVCSQTCYRSQDYGGRSV  2.59
41. DVPDLQSVCSWTCYRSQDYGGRSV  2.59
42. DVPDLQSVCSCTCYRSRDYGGRSV  2.58
43. DVPDLWSVCSCTCYRSQDYGGRSV  2.57
44. DVPDLQSVCSCTCHRSQDYGGRSV  2.55
45. DVPDLQSVCSCTNYRSQDYGGRSV  2.53
46. DVPDLQSVCSCTCYESQDYGGRSV  2.52
47. DVPDLQSVCSLTCYRSQDYGGRSV  2.52
48. DVPDLQSVCSCTCYRCQDYGGRSV  2.5
49. DVPDLQSNCSCTCYRSQDYGGRSV  2.5
50. DVPDLQWVCSCTCYRSQDYGGRSV  2.48
51. DVPDLQSVCSCTCYSSQDYGGRSV  2.48
52. DVPDLQSVCTCTCYRSQDYGGRSV  2.47
53. DVPDLQSVCSCVCYRSQDYGGRSV  2.47
54. DVPDLQSVCSVTCYRSQDYGGRSV  2.46
55. DVPDLQSVCSCTCGRSQDYGGRSV  2.42
56. DVPDLQSQCSCTCYRSQDYGGRSV  2.42
57. DVPDLQSVCSCECYRSQDYGGRSV  2.4
58. DVPDLQSVCLCTCYRSQDYGGRSV  2.39
59. DVPDLQSVCSITCYRSQDYGGRSV  2.39
60. DVPDLQSVISCTCYRSQDYGGRSV  2.38
61. DVPDLQSVCSCTCVRSQDYGGRSV  2.38
62. DVPDLQSVESCTCYRSQDYGGRSV  2.37
63. DVPDLQSVCSCTCRRSQDYGGRSV  2.37
64. DVPDLQSVCSRTCYRSQDYGGRSV  2.34
65. DVPDLQFVCSCTCYRSQDYGGRSV  2.32
66. DVPDLQSVCSCTCYRYQDYGGRSV  2.31
67. DVPDLQSVCSCTVYRSQDYGGRSV  2.31
68. DVPDLQSVCSCTCYRSCDYGGRSV  2.31
69. DVPDLQQVCSCTCYRSQDYGGRSV  2.29
70. DVPDLQIVCSCTCYRSQDYGGRSV  2.29
71. DVPDLQSVKSCTCYRSQDYGGRSV  2.29
72. DVPDLQSVCSCTCSRSQDYGGRSV  2.29
73. DVPDLQSRCSCTCYRSQDYGGRSV  2.29
74. DVPDLQSVCSCTAYRSQDYGGRSV  2.28
75. DVPDLQSVCSCTCKRSQDYGGRSV  2.27
76. DVPDLQSVCQCTCYRSQDYGGRSV  2.25
77. DVPDLQSECSCTCYRSQDYGGRSV  2.24
78. DVPDLQSVCSCTCYGSQDYGGRSV  2.23
79. DVPDLQSVCSCTCNRSQDYGGRSV  2.23
80. DVPDLQSFCSCTCYRSQDYGGRSV  2.22
81. DVPDLQSVCSCTCYRMQDYGGRSV  2.21
82. DVPDLQSVCSCTCYWSQDYGGRSV  2.21
83. DVPDLQSVCSCTCYRSGDYGGRSV  2.21
84. DVPDLQDVCSCTCYRSQDYGGRSV  2.2
85. DVPDLQSVCSCTCYTSQDYGGRSV  2.2
86. DVPDLQSVCSCTRYRSQDYGGRSV  2.19
87. DVPDLQSVVSCTCYRSQDYGGRSV  2.18
88. DVPDLQSVCSCTCYRTQDYGGRSV  2.18
89. DVPDLQSVCSCTCYCSQDYGGRSV  2.17
90. DVPDLQSVLSCTCYRSQDYGGRSV  2.16
91. DVPDLQSVCECTCYRSQDYGGRSV  2.16
92. DVPDLQSVCSCTCYRSDDYGGRSV  2.15
93. DVPDLQSVCSCTCYRSHDYGGRSV  2.14
94. DVPDLQSVCSMTCYRSQDYGGRSV  2.13
95. DVPDLQSVCSCTDYRSQDYGGRSV  2.12
96. DVPDLQSVCSCTCYRNQDYGGRSV  2.1
97. DVPDLQSVCSCTCFRSQDYGGRSV  2.1
98. DVPDLQSVCSCTCYRKQDYGGRSV  2.08
99. DVPDLQSVCSCTCYKSQDYGGRSV  2.08
100. DVPDLQYVCSCTCYRSQDYGGRSV  2.07
101. DVPDLQSVCSCTCYASQDYGGRSV  2.07
102. DVPDLQSVCSCTCYRSEDYGGRSV  2.07
103. DVPDLQSVMSCTCYRSQDYGGRSV  2.06
104. DVPDLQSSCSCTCYRSQDYGGRSV  2.06
105. DVPDLQSVCSFTCYRSQDYGGRSV  2.06
106. DVPDLQSVCSCTCYPSQDYGGRSV  2.05
107. DVPDLQSVCSCPCYRSQDYGGRSV  2.05
108. DVPDLQTVCSCTCYRSQDYGGRSV  2.03
109. DVPDLQSVQSCTCYRSQDYGGRSV  2.03
110. DVPDLQSVCSHTCYRSQDYGGRSV  2.02
111. DVPDLQSVFSCTCYRSQDYGGRSV  2.01
112. DVPDLQSICSCTCYRSQDYGGRSV  2
113. DVPDLQSVCSCTCYYSQDYGGRSV  1.98
114. DVPDLQSVCSCTLYRSQDYGGRSV  1.97
115. DVPDLVSVCSCTCYRSQDYGGRSV  1.97
116. DVPDLQKVCSCTCYRSQDYGGRSV  1.96
117. DVPDLQSVCSCTCYRSFDYGGRSV  1.95
118. DVPDLQSVCSCTYYRSQDYGGRSV  1.94
119. DVPDLQSVCSCYCYRSQDYGGRSV  1.94
120. DVPDLQHVCSCTCYRSQDYGGRSV  1.92
121. DVPDLQSVCSCTCDRSQDYGGRSV  1.92
122. DVPDLQSVCYCTCYRSQDYGGRSV  1.92
123. DVPDLQSVCSCTCARSQDYGGRSV  1.91
124. DVPDLQSVTSCTCYRSQDYGGRSV  1.89
125. DVPDLQSVCSCTCYRSIDYGGRSV  1.87
126. DVPDLQSYCSCTCYRSQDYGGRSV  1.86
127. DVPDLQSVCSCTCYRSKDYGGRSV  1.86
128. DVPDLQSVCSCTCYRDQDYGGRSV  1.85
129. DVPDLTSVCSCTCYRSQDYGGRSV  1.85
130. DVPDLQMVCSCTCYRSQDYGGRSV  1.84
131. DVPDLQSVCSCTCIRSQDYGGRSV  1.83
132. DVPDLQSVYSCTCYRSQDYGGRSV  1.82
133. DVPDLQSVCSCTKYRSQDYGGRSV  1.82
134. DVPDLQGVCSCTCYRSQDYGGRSV  1.81
135. DVPDLQEVCSCTCYRSQDYGGRSV  1.81
136. DVPDLQSVCSCTCYRHQDYGGRSV  1.8
137. DVPDLQSVCSCTCYREQDYGGRSV  1.79
138. DVPDLQSVCSCTCYFSQDYGGRSV  1.78
139. DVPDLQSVCSCACYRSQDYGGRSV  1.78
140. DVPDLQSPCSCTCYRSQDYGGRSV  1.77
141. DVPDLQSVCKCTCYRSQDYGGRSV  1.76
142. DVPDLQSVGSCTCYRSQDYGGRSV  1.75
143. DVPDLQSVCSCTWYRSQDYGGRSV  1.75
144. DVPDLQSVCSCTCCRSQDYGGRSV  1.75
145. DVPDLQSVCSCTMYRSQDYGGRSV  1.73
146. DVPDLQSTCSCTCYRSQDYGGRSV  1.72
147. DVPDLQSVHSCTCYRSQDYGGRSV  1.71
148. DVPDLQSVCSCTCYQSQDYGGRSV  1.68
149. DVPDLQSKCSCTCYRSQDYGGRSV  1.68
150. DVPDLQSVPSCTCYRSQDYGGRSV  1.67
151. DVPDLQCVCSCTCYRSQDYGGRSV  1.66
152. DVPDLQSVCACTCYRSQDYGGRSV  1.66
153. DVPDLQSVCSCTCYRRQDYGGRSV  1.65
154. DVPDLQSVCSCQCYRSQDYGGRSV  1.65
155. DVPDLQAVCSCTCYRSQDYGGRSV  1.64
156. DVPDLQSVCSCNCYRSQDYGGRSV  1.62
157. DVPDLQSLCSCTCYRSQDYGGRSV  1.59
158. DVPDLQSVCSCKCYRSQDYGGRSV  1.58
159. DVPDLQRVCSCTCYRSQDYGGRSV  1.57
160. DVPDLQSHCSCTCYRSQDYGGRSV  1.57
161. DVPDLQSVCSCICYRSQDYGGRSV  1.57
162. DVPDLQVVCSCTCYRSQDYGGRSV  1.56
163. DVPDLQSVCSCTCYRSADYGGRSV  1.56
164. DVPDLQSVCSCTCQRSQDYGGRSV  1.53
165. DVPDLQSVCPCTCYRSQDYGGRSV  1.52
166. DVPDLQSVCSCGCYRSQDYGGRSV  1.52
167. DVPDLQSVCSCTCYRSNDYGGRSV  1.51
168. DVPDLQSVCSCTCTRSQDYGGRSV  1.5
169. DVPDLQSVCSCTCYLSQDYGGRSV  1.49
170. DVPDLQSVCSCTCLRSQDYGGRSV  1.47
171. DVPDLQSVCNCTCYRSQDYGGRSV  1.47
172. DVPDLQPVCSCTCYRSQDYGGRSV  1.46
173. DVPDLQSVCHCTCYRSQDYGGRSV  1.43
174. DVPDLQNVCSCTCYRSQDYGGRSV  1.38
175. DVPDLQSVCRCTCYRSQDYGGRSV  1.33
176. DVPDLQSVCSCSCYRSQDYGGRSV  1.31
177. DVPDLQSVCSCLCYRSQDYGGRSV  1.3
178. DVPDLQSWCSCTCYRSQDYGGRSV  1.29
179. DVPDLQSVCSCTCYVSQDYGGRSV  1.28
180. DVPDLQSVCSCTCYRSPDYGGRSV  1.27
181. DVPDLQSVCFCTCYRSQDYGGRSV  1.26
182. DVPDLQSVCSCMCYRSQDYGGRSV  1.25
183. DVPDLQSVCSCCCYRSQDYGGRSV  1.21
184. DVPDLQSVCSCTCYRAQDYGGRSV  1.2
185. DVPDLQSVCSCTFYRSQDYGGRSV  1.14
186. DVPDLQSVCSCTCYRGQDYGGRSV  1.07
187. DVPDLQSMCSCTCYRSQDYGGRSV  1.06
188. DVPDLQSVCSCTCYRVQDYGGRSV  1.03

— the supplement of paper PMC10567573
